Data from publication PMC6351176 (Molecular microbiology, 2018).

B1: purified DnaD winged helix domain, wild type (B. subtilis, amino acids 1-128) (domain or fragment, UniProt P39787 1-128, looked up)
chain: MKKQQFIDMQEQGTSTIPNLLLTHYKQLGLNETELILLLKIKMHLEKGSYFPTPNQLQEGMSISVEECTNRLRMFIQKGFLFIEECEDQNGIKFEKYSLQPLWGKLYEYIQLAQNQTQERKAEGEQKS
B2: purified DnaD winged helix domain I83A (B. subtilis, amino acids 1-128) (domain or fragment, UniProt P39787 1-128, looked up)
chain: MKKQQFIDMQEQGTSTIPNLLLTHYKQLGLNETELILLLKIKMHLEKGSYFPTPNQLQEGMSISVEECTNRLRMFIQKGFLFAEECEDQNGIKFEKYSLQPLWGKLYEYIQLAQNQTQERKAEGEQKS
B3: purified DnaD winged helix domain F51A (B. subtilis, amino acids 1-128) (domain or fragment, UniProt P39787 1-128, looked up)
chain: MKKQQFIDMQEQGTSTIPNLLLTHYKQLGLNETELILLLKIKMHLEKGSYAPTPNQLQEGMSISVEECTNRLRMFIQKGFLFIEECEDQNGIKFEKYSLQPLWGKLYEYIQLAQNQTQERKAEGEQKS
B4: purified DnaA domain I, wild type (B. subtilis, amino acids 1-82) (domain or fragment, UniProt P05648 1-82, looked up)
chain: MENILDLWNQALAQIEKKLSKPSFETWMKSTKAHSLQGDTLTITAPNEFARDWLESRYLHLIADTIYELTGEELSIKFVIPQ

Legend:
cross-linking = target: the molecule itself; test: cross-linking
[1] = target: B1; test: cross-linking

Binder | stoichiometry N (cross-linking) | further results
B1 |  | binding result (cross-linking): binds
B2 | 4 | 
B3 | 4 | 
B4 |  | binding result [1]: binds
